# Laboratory results published in US20180369344.
# B1: wildtype Cela2a (protein)
# chain: VVGGEEARPNSWPWQVSLQYSSNGKWYHTCGGSLIANSWVLTAAHCISSSRTYRVGLGRHNLYVAESGSLAVSVSKIVVHKDWNSNQISKGNDIALLKLANPVSLTDKIQLACLPPAGTILPNNYPCYVTGWGRLQTNGAVPDVLQQGRLLVVDYATCSSSAWWGSSVKTSMICAGGDGVISSCNGDSGGPLNCQASDGRWQVHGIVSFGSRLGCNYYHKPSVFTRVSNYIDWINSVIANN
# Molecular target: alpha1 antitrypsin (AAT), P01009
# Sequence (P01009 whole entry, looked up): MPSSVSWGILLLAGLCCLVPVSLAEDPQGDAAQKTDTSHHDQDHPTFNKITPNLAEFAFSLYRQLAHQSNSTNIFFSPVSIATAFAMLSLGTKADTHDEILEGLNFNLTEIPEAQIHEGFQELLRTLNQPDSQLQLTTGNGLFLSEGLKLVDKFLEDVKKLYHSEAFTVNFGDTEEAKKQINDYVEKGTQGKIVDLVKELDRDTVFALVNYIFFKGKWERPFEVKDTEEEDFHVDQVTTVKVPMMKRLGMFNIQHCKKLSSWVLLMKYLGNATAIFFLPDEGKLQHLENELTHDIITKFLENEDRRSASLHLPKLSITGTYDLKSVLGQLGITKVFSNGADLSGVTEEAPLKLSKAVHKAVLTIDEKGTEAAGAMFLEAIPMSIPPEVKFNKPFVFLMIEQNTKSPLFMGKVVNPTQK
protein,measurement,value
B1,cleavage of alpha1-antitrypsin,Cela2a cleaves alphal-antitrypsin.
